From US8993714B2, “Streptavidin macromolecular adaptor and complexes thereof” (Imiplex LLC, priority 2007, dated 2015)

How the values were obtained:
[1] = Binding of purified MJ0577 to nucleotide mimicking resin Cibacron Blue; settings: 25 mM sodium phosphate buffer pH 7.6
Procedure: (§1) The structure of MJ0577 was determined in the context of a structural genomics project aimed at elucidating protein function through 3D structural studies. […] Because the nucleotide was not added to buffers used during purification and crystallization, the authors concluded that ATP was scavenged from the growth media. […] Because the purification protocol developed here includes heating and dialysis at pH 5.2 steps, we believed that it was possible that the protein would be isolated as the ATP-free form. To test this hypothesis, the affinity of purified MJ0577 for the nucleotide mimicking resin, Cibacron Blue, was tested following the procedure successfully applied in the purification of an MJ0577 structural relative, E. coli YnaF (Saveanu et al. 2002). […] MJ0577 was dialyzed overnight against 8 M guanidinium HCl (GuHCl) 0.2 M TRIS pH 8.2, 5 mM DTT, then dialyzed overnight against 8 M urea, and finally equilibrated to non-denaturing conditions by dialysis against 25 mM sodium phosphate buffer pH 7.6. In a separate experiment, MJ0577 was dialyzed overnight against 2 M GuHCl in 25 mM L-histidine pH 5.6, 2 M GuHCl in 25 mM CHES pH 9.8, and 2 M GuHCl in 25 mM sodium phosphate buffer pH 7.8, 20% DMSO. Half of each sample was then heated at 40° C. for one hour. […] Such results can enable the ready establishment of proper conditions for a biotin-ATP substituted SAMA.

[2] = Binding of MJ0577 to ATP immobilized on a resin via the g-phosphate, analysis by PAGE; settings: after dialysis against GuHCl/urea
Procedure: as §1

[3] = Zarembinski et al. 1998; cited from earlier work

B1: MJ0577: protein dimer isolated from the thermostable bacterium Methanococcus jannaschii, 162 residues, SEQ ID NO: 11; SAMA template (protein, listed as Methanococcus jannaschii)
chain: MSVMYKKILYPTDFSETAEIALKHVKAFKTLKAEEVILLHVIDEREIKKRDIFSLLLGVAGLNKSVEEFENELKNKLTEEAKNKMENIKKELEDVGFKVKDIIVVGIPHEEIVKIAEDEGVDIIIMGSHGKTNLKEILLGSVTENVIKKSNKPVLVVKRKNS
modifications: dimer
notes: SAMA template
binding to Cibacron Blue resin [1]: No binding was observed
interaction with ATP resin [2]: essentially no interaction
thermostable to [3]: at least 80 °C
